Test results taken from patent publication US10662235B2, “Cysteine engineered fibronectin type III domain binding molecules” (Janssen Biotech, Inc., priority 2016, dated 2020).

Experiments:
[1] = Body weight loss / tolerability in H292-HGF xenograft study; settings: treatment and 2 weeks observation
Method: At the time of routine monitoring, the animals were checked for any effects of tumor growth and treatments on normal behavior, such as mobility, visual estimation of food and water consumption, body weight gain/loss (body weights were measured twice weekly), eye/hair matting and any other abnormal effect.
Animals for which the body weight loss exceeded 20%, or for which the mean tumor size of the group exceeds 2000 mm^3 were euthanized. The study was terminated after two weeks of observation after the final dose.

[2] = test system: H292-HGF human lung cancer xenograft; experiment: Efficacy of bispecific molecule and other inhibitors in H292-HGF xenograft model (tumor volume, T/C, T-C); type: in vivo, SCID/Beige mice
Method: The H292-HGF cells were maintained in vitro in RPMI1640 medium supplemented with fetal bovine serum (10% v/v), and L-glutamine (2 mM) at 37° C. in an atmosphere of 5% CO2 in air. The cells were routinely subcultured twice weekly by trypsin-EDTA treatment. The cells growing in an exponential growth phase were harvested and counted for tumor inoculation.
Each mouse was inoculated subcutaneously at the right flank region with H292-HGF tumor cells (2×10^6) in 0.1 ml of PBS with cultrex (1:1) for tumor development. The treatments were started when the mean tumor size reached 139 mm^3. […] The date of tumor cell inoculation was denoted as day 0.
Before commencement of treatment, all animals were weighed and the tumor volumes were measured. Since the tumor volume can affect the effectiveness of any given treatment, mice were assigned into groups using randomized block design based upon their tumor volumes. […] The randomized block design was used to assign experimental animals to groups. First, the experimental animals were divided into homogeneous blocks according to their initial tumor volume. Secondly, within each block, randomization of experimental animals to treatments was conducted.
The major endpoint was whether tumor growth can be delayed or tumor bearing mice can be cured. Tumor size was measured twice weekly in two dimensions using a caliper, and the volume was expressed in mm^3 using the formula: V=0.5a×b^2 where a and b are the long and short diameters of the tumor, respectively. The tumor size was then used for calculations of both T-C and T/C values. T-C was calculated with T as the time (in days) required for the mean tumor size of the treatment group to reach 1000 mm^3, and C was the time (in days) for the mean tumor size of the control group to reach the same size. The T/C value (in percent) was an indication of antitumor efficacy; T and C were the mean volume of the treated and control groups, respectively, on a given day. Complete tumor regression (CR) is defined as tumors that are reduced to below the limit of palpation (62.5 mm^3). Partial tumor regression (PR) is defined as tumors that are reduced from initial tumor volume. A minimum duration of CR or PR in 3 or more successive tumor measurements is required for a CP or PR to be considered durable.
Statistical analyses of difference in tumor volume among the groups were evaluated using a one-way ANOVA followed by individual comparisons using Games-Howell (equal variance not assumed). All data were analyzed using SPSS 18.0. p<0.05 was considered to be statistically significant.

[3] = Analytical size exclusion chromatography (aggregation state, percent monomer); type: physicochemical; settings: NEM-conjugated cysteine variants; SEC, Abs280
Method: Size exclusion chromatography was used to determine the aggregation state of the FN3 domains binding EGFR. Aliquots (10 μL) of each purified FN3 domain were injected onto a Superdex 75 5/150 column (GE Healthcare) at a flow rate of 0.3 mL/min in a mobile phase of PBS pH 7.4. Elution from the column was monitored by absorbance at 280 nm.
The percent monomer for each protein was determined by integrating the Abs280 signal and comparing the peak in the monomer region (5.5-6 minutes) to the peaks in the oligomer region (4-5.3 minutes).

[4] = Thermal stability by differential scanning calorimetry; type: physicochemical; settings: cysteine-NEM conjugates; for First Scan Tm: DSC 25-100° C., 1° C. per minute; for Second Scan Tm: second identical scan
Method: The thermal stability of cysteine-NEM conjugates was assessed by differential scanning calorimetry (DSC). The only the conjugates tested were those determined to express at high levels, conjugate efficiently, and retain EGFR binding. Additionally, cysteine variants within the BC and FG loops were excluded. Stability data was generated by heating a 400 μL aliquot of the variant from 25° C. to 100° C. at a scan rate of 1° C. per minute in a VP-DSC instrument (MicroCal). A second identical scan was completed on the sample in order to assess the reversibility of thermal folding/unfolding. Data was fitted to a 2-state unfolding model in order to calculate the melting temperature (Table 10).
Thermal Stability of c-Met-Binding FN3 Domains Differential scanning calorimetry in PBS was used to assess the stability of each FN3 domain.

H1573 cells = experiment: Cytotoxicity assay of cytotoxin conjugates in H1573 cells; type: cell-based, human; settings: MMAF conjugates, Cell TiterGlo at 70 hours, read-out: IC50 (cell killing)
Method: Cell killing was assessed by measuring viability of the EGFR-overexpressing human tumor cell line H1573 following exposure to the cysteine variant-cytotoxin conjugates. […] Cells were allowed to attach overnight at 37° C. in a humidified 5% CO2 atmosphere. Medium was aspirated from 96-well plate and cells were treated with 50 uL of fresh media and 50 uL of 2× inhibitor made up in fresh media. Cell viability was determined by an endpoint assay with Cell TiterGlo (Promega) at 70 hours. IC50 values were determined by fitting data to the equation for a sigmoidal dose response with variable slope using GraphPad Prism 5 (GraphPad Software).
Conjugates consisting of ECB147 cysteine variants, 83v2-cys, or Tencon-cys linked to a cytotoxic tubulin inhibitor from the auristatin family (FIG. 2) were tested for target-dependent cytotoxicity in cancer cells. The inhibitor was linked to the cysteine-containing protein via a non-cleavable PEG4 linker or an enzyme-cleavable valine-citrulline or valine-lysine linker.

[5] = test system: H292-HGF tumor xenografts; experiment: Tumor efficacy study with bispecific EGFR/c-Met molecules (tumor growth inhibition); type: in vivo, SCID Beige mice; settings: 25 mg/kg three times per week (FIG. 10)
Method: One week after implantation, mice were stratified into groups with equivalent tumor volumes (mean tumor volume=77.9+/−1.7 mm^3). Mice were dosed three times per week with the bispecific molecules and tumor volumes were recorded twice weekly.

## C[C@@H](Oc1cc(-c2cnn(C3CCNCC3)c2)cnc1N)c1c(Cl)ccc(F)c1Cl [Crizotinib]
[1]
  toxicity / body weight loss / tolerability: More severe body weight loss
[2]; H292-HGF xenograft
  antitumor activity: no antitumor activity
[2]; day 23
  T/C value: 120%

## C#Cc1cccc(Nc2ncnc3cc(OCCOC)c(OCCOC)cc23)c1 [Erlotinib]
[1]
  toxicity / body weight loss / tolerability: More severe body weight loss

B1: S20C (protein)
chain 1: MLPAPKNLVVSEVTEDSARLCWDDPWAFYESFLIQYQESEKVGEAIVLTVPGSERSYDLTGLKPGTEYTVSIYGVHNVYKDTNMRGLPLSAIFTT
chain 2: LPAPKNLVVSEVTEDSARLCWDDPWAFYESFLIQYQESEKVGEAIVLTVPGSERSYDLTGLKPGTEYTVSIYGVHNVYKDTNMRGLPLSAIFTT
modifications: EGFR binding FN3 domain; EGFR-binding FN3 domain
[3]
  Percent monomer: 94%
[4]
  First Scan Tm: 70 °C
  Second Scan Tm: 70 °C
H1573 cells
  IC50: 0.36 nM

B2: T48C (protein)
chain 1: MLPAPKNLVVSEVTEDSARLSWDDPWAFYESFLIQYQESEKVGEAIVLCVPGSERSYDLTGLKPGTEYTVSIYGVHNVYKDTNMRGLPLSAIFTT
chain 2: LPAPKNLVVSEVTEDSARLSWDDPWAFYESFLIQYQESEKVGEAIVLCVPGSERSYDLTGLKPGTEYTVSIYGVHNVYKDTNMRGLPLSAIFTT
modifications: EGFR binding FN3 domain; EGFR-binding FN3 domain
[3]
  Percent monomer: 90%
[4]
  First Scan Tm: 72 °C
  Second Scan Tm: 72 °C
H1573 cells
  IC50: 0.59 nM

B3: S30C (protein)
chain 1: MLPAPKNLVVSEVTEDSARLSWDDPWAFYECFLIQYQESEKVGEAIVLTVPGSERSYDLTGLKPGTEYTVSIYGVHNVYKDTNMRGLPLSAIFTT
chain 2: LPAPKNLVVSEVTEDSARLSWDDPWAFYECFLIQYQESEKVGEAIVLTVPGSERSYDLTGLKPGTEYTVSIYGVHNVYKDTNMRGLPLSAIFTT
modifications: EGFR binding FN3 domain; EGFR-binding FN3 domain
[3]
  Percent monomer: 94%
[4]
  First Scan Tm: 71 °C
  Second Scan Tm: 71 °C
H1573 cells
  IC50: 0.78 nM

B4: S38C (protein)
chain 1: MLPAPKNLVVSEVTEDSARLSWDDPWAFYESFLIQYQECEKVGEAIVLTVPGSERSYDLTGLKPGTEYTVSIYGVHNVYKDTNMRGLPLSAIFTT
chain 2: LPAPKNLVVSEVTEDSARLSWDDPWAFYESFLIQYQECEKVGEAIVLTVPGSERSYDLTGLKPGTEYTVSIYGVHNVYKDTNMRGLPLSAIFTT
modifications: EGFR binding FN3 domain; EGFR-binding FN3 domain
[3]
  Percent monomer: 93%
[4]
  First Scan Tm: 65 °C
  Second Scan Tm: 65 °C
H1573 cells
  IC50: 0.76 nM

B5: I91C (protein)
chain: LPAPKNLVVSEVTEDSARLSWDDPWAFYESFLIQYQESEKVGEAIVLTVPGSERSYDLTGLKPGTEYTVSIYGVHNVYKDTNMRGLPLSACFTT
[3]
  Percent monomer: 100%
[4]
  First Scan Tm: 70 °C
  Second Scan Tm: 69 °C
H1573 cells
  IC50: 0.54 nM

B6: S89C (protein)
chain 1: MLPAPKNLVVSEVTEDSARLSWDDPWAFYESFLIQYQESEKVGEAIVLTVPGSERSYDLTGLKPGTEYTVSIYGVHNVYKDTNMRGLPLCAIFTT
chain 2: LPAPKNLVVSEVTEDSARLSWDDPWAFYESFLIQYQESEKVGEAIVLTVPGSERSYDLTGLKPGTEYTVSIYGVHNVYKDTNMRGLPLCAIFTT
modifications: EGFR binding FN3 domain; EGFR-binding FN3 domain
[3]
  Percent monomer: 96%
[4]
  First Scan Tm: 72 °C
  Second Scan Tm: 71 °C
H1573 cells
  IC50: 0.94 nM

B7: V41C (protein)
chain 1: MLPAPKNLVVSEVTEDSARLSWDDPWAFYESFLIQYQESEKCGEAIVLTVPGSERSYDLTGLKPGTEYTVSIYGVHNVYKDTNMRGLPLSAIFTT
chain 2: LPAPKNLVVSEVTEDSARLSWDDPWAFYESFLIQYQESEKCGEAIVLTVPGSERSYDLTGLKPGTEYTVSIYGVHNVYKDTNMRGLPLSAIFTT
modifications: EGFR binding FN3 domain; EGFR-binding FN3 domain
[3]
  Percent monomer: 98%
[4]
  First Scan Tm: 71 °C
  Second Scan Tm: 71 °C
H1573 cells
  IC50: 1.13 nM

B8: R54C (protein)
chain 1: MLPAPKNLVVSEVTEDSARLSWDDPWAFYESFLIQYQESEKVGEAIVLTVPGSECSYDLTGLKPGTEYTVSIYGVHNVYKDTNMRGLPLSAIFTT
chain 2: LPAPKNLVVSEVTEDSARLSWDDPWAFYESFLIQYQESEKVGEAIVLTVPGSECSYDLTGLKPGTEYTVSIYGVHNVYKDTNMRGLPLSAIFTT
modifications: EGFR binding FN3 domain; EGFR-binding FN3 domain
[3]
  Percent monomer: 96%
[4]
  First Scan Tm: 65 °C
  Second Scan Tm: 65 °C
H1573 cells
  IC50: 0.37 nM

B9: S70C (protein)
chain 1: MLPAPKNLVVSEVTEDSARLSWDDPWAFYESFLIQYQESEKVGEAIVLTVPGSERSYDLTGLKPGTEYTVCIYGVHNVYKDTNMRGLPLSAIFTT
chain 2: LPAPKNLVVSEVTEDSARLSWDDPWAFYESFLIQYQESEKVGEAIVLTVPGSERSYDLTGLKPGTEYTVCIYGVHNVYKDTNMRGLPLSAIFTT
modifications: EGFR binding FN3 domain; EGFR-binding FN3 domain
[3]
  Percent monomer: 100%
[4]
  First Scan Tm: 73 °C
  Second Scan Tm: 72 °C
H1573 cells
  IC50: 1.14 nM

B10: T59C (protein)
chain 1: MLPAPKNLVVSEVTEDSARLSWDDPWAFYESFLIQYQESEKVGEAIVLTVPGSERSYDLCGLKPGTEYTVSIYGVHNVYKDTNMRGLPLSAIFTT
chain 2: LPAPKNLVVSEVTEDSARLSWDDPWAFYESFLIQYQESEKVGEAIVLTVPGSERSYDLCGLKPGTEYTVSIYGVHNVYKDTNMRGLPLSAIFTT
modifications: EGFR binding FN3 domain; EGFR-binding FN3 domain
[3]
  Percent monomer: 100%
[4]
  First Scan Tm: 67 °C
  Second Scan Tm: 67 °C
H1573 cells
  IC50: 0.44 nM

B11: ECB18: bispecific P54AR4-83v2 / P114AR5P74-A5 linked to albumin binding domain, SEQ ID 118 (protein)
chain: MLPAPKNLVVSEVTEDSARLSWDDPWAFYESFLIQYQESEKVGEAIVLTVPGSERSYDLTGLKPGTEYTVSIYGVHNVYKDTNMRGLPLSAIFTTAPAPAPAPAPLPAPKNLVVSRVTEDSARLSWTAPDAAFDSFWIRYDEVVVGGEAIVLTVPGSERSYDLTGLKPGTEYYVNILGVKGGSISVPLSAIFTTAPAPAPAPAPLAEAKVLANRELDKYGVSDYYKNLINNAKTVEGVKALLDEILAALP
modifications: Bispecific EGFR/c-Met binding molecule
[5]
  tumor growth inhibition (TGI): delay in tumor growth

B12: ECB39: bispecific P53A1R5-17v2 / P114AR7P94-A3 linked to albumin binding domain, SEQ ID 121 (protein)
chain: MLPAPKNLVVSEVTEDSARLSWADPHGFYDSFLIQYQESEKVGEAIVLTVPGSERSYDLTGLKPGTEYTVSIYGVHNVYKDTNMRGLPLSAIFTTAPAPAPAPAPLPAPKNLVVSRVTEDSARLSWTAPDAAFDSFWIRYFEFLGSGEAIVLTVPGSERSYDLTGLKPGTEYVVNIMGVKGGKISPPLSAIFTTAPAPAPAPAPLAEAKVLANRELDKYGVSDYYKNLINNAKTVEGVKALLDEILAALP
modifications: Bispecific EGFR/c-Met binding molecule
[5]
  tumor growth inhibition (TGI): showed the most efficacy
